Measured values from US20110189194A1, “USE OF CD95 INHIBITORS FOR THE TREATMENT OF INFLAMMATORY DISORDERS” (Deutsches Krebsforschungszentrum Stiftung des offentlichen …, priority 2008, published 2011).
Entries after “also recorded” stand apart in the source; their conditions may differ.

B1: CD95-RB69: CD95L-neutralizing trimeric fusion protein: human CD95-ECD (M1-E168) fused to bacteriophage RB69 fibritin foldon domain, with streptag-II (protein)
chain: MVGIWTLLPLVLTSVARLSSKSVNAQVTDINSKGLELRKTVTTVETQNLEGLHHDGQFCHKPCPPGERKARDCTVNGDEPDCVPCQEGKEYTDKAHFSSKCRRCRLCDEGHGLEVEINCTRTQNTKCRCKPNFFCNSTVCEHCDPCTKCEHGIIKECTLTSNTKCKEEGSSGSSGSSGSGYIEDAPSDGKFYVRKDGAWVELPTASGPSSSSSSAWSHPQFEK
modifications: CD95-RB69 fusion protein
notes: CD95L-neutralizing trimeric fusion protein: human CD95-ECD (M1-E168) fused to bacteriophage RB69 fibritin foldon domain, with streptag-II

Key:
[1] = treated within the first 8 h of injury, compared to placebo, naloxone, or MPSS at later time points; cited from earlier work
[2] = tested on: peritoneum; assay: Thioglycolate-induced peritonitis, infiltration of neutrophils; format: in vivo, mice
Method: (§1) Mice were treated intravenously 5 minutes after SCI or induction of thioglycolate-induced peritonitis with 50 μg (solved in 200 μl sterile PBS) of either CD95-RB69 or a mutated form, CD95-(R87S)-RB69, which is unable to bind CD95L.
For thioglycolate-induced peritonitis, 1 ml of 3% thioglycolate broth (Fluka #70157) was injected i.p. in CD95L^f/f;LysMcre and CD95L^f/f mice or in wt mice acutely treated with CD95-RB69 or its respective control. In this model, neutrophils are known to start infiltrating the peritoneum within the first hours, whereas macrophage infiltration peaks at 72 h. At the indicated times, mice were sacrificed, blood samples collected and peritoneal cavities lavaged with 10 ml sterile Hanks balanced salt solution (HBSS; Invitrogen #14170-138) containing 0.25% bovine serum albumin (Roche #10735094001). Total cell counts were performed in a Neubauer hematocytometer (Brand), and differential cell counts were carried out by flow cytometry. Results are expressed as the absolute number of neutrophils or macrophages×10^5/cavity. For every experiment performed, blood immune cell populations were analyzed by the appropriate cell markers.

[3] = tested on: injured spinal cord; assay: Immune cell infiltration into the injured spinal cord after SCI (flow cytometry); format: in vivo, mice
Method: SCI models: Transection injury of the spinal cord was performed as previously described (Demjen et al., 2004). For the crush injury model, forceps were held on the spinal cord for 15 seconds resulting in a lateral compression of the spinal cord (Plemel et al., 2008). Immediately following injury and for an additional week mice received antibiotics (Gentamycin, 5 ml/kg of a 0.2 mg/ml solution) to prevent infections. Post-operative care included housing of the animals at 27° C., food and water ad libitum, and manual expression of the bladders once daily.
as §1
Stainings were performed on cells derived from bone marrow, peritoneum, blood or spinal cord tissue. For preparation of mouse cells derived from spinal cord tissue, the animals were perfused with HBSS to remove blood from the organs. Then the spinal cord (1 cm around the lesion site) was isolated and lysed for 3 h in thermolysin (0.5 mg/ml, Sigma #T-7902) on a shaker at 37° C. Tissue was incubated for 10 more minutes in trypsin 0.5%-EDTA (Invitrogen #25300096) and finally homogenized by passing 10 times through a Pasteur pipette and through a 40 μm cell strainer (BD #352340).
For all stainings, cells were resuspended in FACS buffer (PBS, 0.2% NaN3) and preincubated in Fc block for 10 minutes before stained with the respective antibodies 30 minutes on ice. For intracellular stainings blood samples were fixed with 4% PFA after Ery Lysis and permeabilized with methanol before the staining. Samples were run on a FACSCantoll flow cytometer (BD) and analyzed using FACSDiva (BD) software or FlowJo software. For all FACS analyses done on cells derived from spinal cord tissue 1,000,000 events were counted.
For all tissue analysis, neutrophils were identified as CD45 positive, GR-1 high-positive and their characteristic forward (FSC) and side scatter (SSC) profile. […]

[4] = target: T1, mouse CD95L (Mus musculus, UniProt P41047); assay: Neutralisation of mouse CD95L-T4 induced apoptosis on Jurkat cells (DEVD-AFC cleavage); format: cell-based; details: 250 ng/ml mouse CD95L-T4
T1 construct: T4 (bacteriophage T4 fibritin foldon trimerisation domain)
T1 sequence (P41047 with tags, fused parts or gaps limits assumed): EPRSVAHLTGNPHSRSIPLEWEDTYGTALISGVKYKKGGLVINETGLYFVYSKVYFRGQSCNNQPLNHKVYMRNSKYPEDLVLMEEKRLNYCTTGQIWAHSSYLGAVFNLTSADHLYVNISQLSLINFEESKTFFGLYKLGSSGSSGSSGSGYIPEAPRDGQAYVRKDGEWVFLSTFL
Method: (§2) Mutation of R87S abrogates the ability of the CD95-RB69 protein to inhibit CD95L-mediated killing of Jurkat cells. Jurkat cells were incubated with 250 ng/ml of human (A) or mouse (B) CD95L-T4 in the presence of wild-type and mutant CD95-RB69 in duplicates for each concentration of the fusion proteins. Decreased cell death is represented by low DEVD-AFC cleavage rates.
(§3) While we were using a human CD95 fusion protein in mouse, we had to analyse the binding of the R87S based control-protein for the human CD95/murine CD95L-interaction prior to the studies performed. We addressed this question by examining the ability of the CD95-fusion proteins to neutralise the apoptosis inducing capacity of either human or mouse CD95L on Jurkat cells in vitro.

[5] = tested on: injured spinal cord; assay: Gene expression profiling (microarray) of spinal cord 24 h after SCI; format: in vivo, mice; details: compared to vehicle-treated
Method: as §1
For tissue, spinal cords were dissected out and RNA was extracted with the mirVana microRNA Extraction Kit essentially according to the manufacturer's protocol (Ambion #AM1560). mRNA of injured mice were represented as normalized to the respective uninjured animals. Cells from peritoneal exudates or bone-marrow derived cells were washed with PBS and taken up in RLT-buffer containing β-mercaptoethanol. RNA was extracted using the RNeasy Mini Kit (Qiagen, #74104).
.Cel files were generated using Affymetrix software and imported into Chipinspector. The data were analyzed by Genomatix Chipinspector as described by the manufacturer's guidelines (Genomatix GmbH, Munich, Germany, http://www.genomatix.de). dChip software was used for hierarchical clustering of datasets (http://biosuntharvard.edu/complab/dchip/). A 5% p-value was applied as a cut-off. […]

[6] = target: T2, human CD95L (Homo sapiens, UniProt P48023); assay: Neutralisation of human CD95L-T4 induced apoptosis on Jurkat cells (DEVD-AFC cleavage); format: cell-based; details: 250 ng/ml human CD95L-T4
T2 construct: T4 (bacteriophage T4 fibritin foldon trimerisation domain)
T2 sequence (P48023 with tags, fused parts or gaps limits assumed): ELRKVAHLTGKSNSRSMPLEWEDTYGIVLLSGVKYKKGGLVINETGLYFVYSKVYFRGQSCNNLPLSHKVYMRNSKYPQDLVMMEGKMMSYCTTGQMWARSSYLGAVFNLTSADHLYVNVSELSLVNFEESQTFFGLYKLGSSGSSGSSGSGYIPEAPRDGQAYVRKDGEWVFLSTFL
Method: as §2, §3

[7] = 24 h after SCI, 50 μg i.v. 5 minutes after SCI, 1,000,000 events counted

Molecule | motor and sensory function of spinal injured patients [1] | Neutrophil number ± SEM in peritoneal cavity ([2]; 6 h after thioglycolate, 50 μg i.v. 5 minutes after induction) | infiltration of neutrophils into the peritoneum (in words) ([2]; 6 hours after thioglycolate injection) | CD45 cells in injured spinal cord, Events ± SEM [3, 7] | Neutrophils in injured spinal cord, Events ± SEM [3, 7] | infiltration of neutrophils into the lesion site (in words) ([3]; 24 hours after injury, systemic administration) | neutralisation of the apoptotic activity of mouse CD95L [4] | expression of genes involved in apoptosis [5] | expression of genes involved in the immune response [5] | neutralisation of the apoptotic activity of human CD95L [6]
C[C@H]1C[C@@H]2[C@H]([C@@H](O)C[C@@]3(C)[C@H]2CC[C@]3(O)C(=O)COC(=O)CCC(=O)O)[C@@]2(C)C=CC(=O)C=C12 [MPSS, methylprednisolone sodium succinate] | significantly improved motor and sensory function | – | – | – | – | – | – | – | – | –
B1 | – | 13.92 ± 1.46 *10^5 | significantly reduced; also recorded: Reduced infiltration | CD45: 698 ± 57 Events | Neutrophils: 400 ± 54 Events | decreased; also recorded: reduced | efficiently neutralises | reduced; also recorded: down-regulation | down-regulation | efficiently neutralises
